Patent US20200002436A1 (DRAGONFLY THERAPEUTICS, published 2020)

Assays:
Assay in all cases: ELISA on coated NKG2D-Fc;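 also: titrated NKG2D binders added to plates coated with human, mouse or cynomolgus NKG2D ectodomain–human IgG1 Fc fusions, detected by HRP anti-human kappa antibody with TMB, absorbance at 450 nm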
[1] = biological target: T1, human recombinant NKG2D-Fc (human, UniProt P26718 73-216)
T1 construct: extracellular domain; also called recombinant human NKG2D-Fc; NKG2D-Fc fusion protein; not shown: human IgG1 Fc domain
T1 sequence (looked up): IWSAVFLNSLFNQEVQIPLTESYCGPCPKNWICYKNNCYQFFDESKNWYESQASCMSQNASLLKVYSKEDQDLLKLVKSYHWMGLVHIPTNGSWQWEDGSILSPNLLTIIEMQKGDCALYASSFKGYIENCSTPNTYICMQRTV

[2] = biological target: T2, cynomolgus recombinant NKG2D-Fc (cynomolgus; human, UniProt P61252 73-216)
T2 construct: extracellular domain; also called cynomolgus NKG2D-Fc; not shown: human IgG1 Fc domain
T2 sequence (looked up): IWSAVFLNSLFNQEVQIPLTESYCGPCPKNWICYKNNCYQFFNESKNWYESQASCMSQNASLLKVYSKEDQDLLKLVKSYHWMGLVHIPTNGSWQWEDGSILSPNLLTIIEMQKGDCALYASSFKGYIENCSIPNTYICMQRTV

[3] = biological target: T3, mouse recombinant NKG2D-Fc (mouse; human, UniProt O54709 90-232)
T3 construct: extracellular domain; also called recombinant mouse NKG2D-Fc; Mouse NKG2D-Fc-biotin; not shown: human IgG1 Fc domain
T3 sequence (looked up): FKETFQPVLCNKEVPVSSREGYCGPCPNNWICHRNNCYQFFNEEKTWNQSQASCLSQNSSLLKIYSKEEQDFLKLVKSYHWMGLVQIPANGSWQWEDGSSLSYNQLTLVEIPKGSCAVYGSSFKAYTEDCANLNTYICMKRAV

binding result [1]: binds | binding result [2]: binds | binding result [3]: binds
B1: ADI-27724 (antibody, V domains shown)
VH: QVQLQQWGAGLLKPSETLSLTCAVYGGSFSGYYWSWIRQPPGKGLEWIGEIDHSGSTNYNPSLKSRVTISVDTSKNQFSLKLSSVTAADTAVYYCARARGPWSFDPWGQGTLVTVSS
VL: not shown
